Measured values reported in publication PMC7937711, “Development and Characterization of Nanobodies Targeting the Kupffer Cell” (Frontiers in Immunology, 2021).
Where two headings read alike, the source gives them in different places.

How the values were obtained:
[1] = target: T1, recombinant mouse Clec4F (CLEC4F/CLECSF13), soluble extracellular domain Ala65-Gly548 (Mus musculus, UniProt P70194); test: SPR; Biacore T200; 400 RU of recombinant mouse Clec4F coupled to a CM5 chip; nanobodies flown at 30 ul/min at 1-400 nM; 1:1 binding model; conditions: both partners purified
T1 construct: Clec4F (C-type lectin domain family 4, member F), mouse, soluble extracellular domain Ala65-Gly548; the oligomeric state of the bought protein was not measured here; also called mClec4F; mouse Kupffer cell receptor Clec4F; source: bought: R&D Systems (NS0-derived, mouse myeloma cell line)

[2] = target: T1, recombinant mouse Clec4F …; test: as above; conditions: both partners purified; remark: listed apart in the source
[3] = target: T2, recombinant mouse Clec4F (CLEC4F/CLECSF13), soluble extracellular domain Ala65-Gly548 (mouse) (UniProt P70194); test: as above
T2 sequence: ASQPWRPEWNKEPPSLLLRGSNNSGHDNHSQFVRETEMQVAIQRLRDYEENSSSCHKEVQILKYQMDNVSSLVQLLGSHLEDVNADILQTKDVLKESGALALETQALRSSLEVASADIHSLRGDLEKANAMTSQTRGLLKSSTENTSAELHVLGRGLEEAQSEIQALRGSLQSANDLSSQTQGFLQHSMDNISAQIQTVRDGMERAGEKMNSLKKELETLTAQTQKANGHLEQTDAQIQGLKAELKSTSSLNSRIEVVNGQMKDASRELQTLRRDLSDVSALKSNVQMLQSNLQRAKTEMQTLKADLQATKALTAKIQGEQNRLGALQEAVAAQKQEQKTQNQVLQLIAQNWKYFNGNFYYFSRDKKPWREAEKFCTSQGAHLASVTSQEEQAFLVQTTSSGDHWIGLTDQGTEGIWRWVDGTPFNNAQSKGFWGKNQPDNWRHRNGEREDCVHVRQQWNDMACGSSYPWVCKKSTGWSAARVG

[4] = target: Nb1.46 (alpaca (Vicugna pacos)); test: SDS-PAGE; 10% SDS-PAGE with Coomassie staining of the nanobody preparations after IMAC and dialysis
[5] = target: Nb3.60 (alpaca (Vicugna pacos)); test: as above
[6] = target: T1, recombinant mouse Clec4F …
[7] = target: T1, recombinant mouse Clec4F …; test: SPR; epitope binning: Clec4F immobilised on the chip; 1st nanobody injected (50 nM) to saturation, then a mix of 1st and 2nd nanobody; extra RU read; conditions: both partners purified

B1: Nb8.37 (VHH)
VHH: QVQLVESGGGLVQPGGSLRLSCAASGLTLDYLRIAWFRQAPGKKRERVSCISITEGSANYADSVKGRFTISRDNAKNTVFLQMNSLKPEDTAVYYCAARRYYCSGTPTDYAYWGQGTQVTVSS
notes: Labelled with 99mTc through its His tag for the biodistribution test only; also called R3-37; group G8; source: E. coli WK6 periplasm, purified (IMAC Ni-NTA, dialysis; size exclusion chromatography for the later tests); not shown: His6, C-terminal, kept
Kd [1]: 0.79 nM | koff [1]: 0.00124 s⁻¹ | kon [1]: 1.57e+06 M⁻¹ s⁻¹

B2: Nb5.10 (VHH)
VHH: QVQLVESGGGLVQPGGSLRLSCAANVSSFRFAAMGWYRQVQGKRRELVATITRDGVSNYVEPMKGRFTISRDNGKNTVYLQMNHLQPEDTAVYYCAAKISPFGGTWTPDYWGQGTQVTVSS
notes: also called R3-10; group G5; source: E. coli WK6 periplasm, purified (IMAC Ni-NTA, dialysis)
binding result [2]: binds

B3: Nb14.70 (VHH)
VHH: QVQLVESGGGLVQAGDSLSLVCTLPERSRFAVGWFRQASGKEREIVAAISWLGMNEYYGDSVKGRSTISRDNAKNTVRLQMDSLKREDTAVYYCAADYSLDNVRRTPRFWGQGTQVTVSS
koff [3]: 0.0606 s⁻¹ | kon [3]: 3.06e+07 M⁻¹ s⁻¹

B4: Nb1.46 (VHH)
VHH: QVQLVESGGGLVQAGGSLRLSCAASGRTFSSYAMGWFRQAPGKERECVAAMDWSTSATYYADSVKGRFTISRDNAKNTVYLQMNSLKPEDTAVYYCAADLDYSDYGPFPGDMDYWGKGTQVTVSS
notes: The preparation held dimers beside monomers (SDS-PAGE); extra cysteine at position 52 (IMGT); also called R2-46; group G1; source: E. coli WK6 periplasm, purified (IMAC Ni-NTA, dialysis); not shown: His6, C-terminal, kept
stoichiometry N [4]: 2 | binding result [2]: binds

B5: Nb11.20 (VHH)
VHH: QVQLVESGGGLVQTGGSLRLSCAASGRTVSSYRMGWFRQAPGKEREFVCMITRSGFKTYCNDSVKGRFTISRDVAVNTVNLQMNSLKPEDTADYYCAATERWGTTATMTTANDYDYWGQGTQVTVSS
notes: also called R2-20; group G11; source: E. coli WK6 periplasm, purified (IMAC Ni-NTA, dialysis)
Kd [1]: 0.403 nM | koff [1]: 0.00139 s⁻¹ | kon [1]: 3.46e+06 M⁻¹ s⁻¹

B6: Nb13.12 (VHH)
VHH: QVQLVESGGGLVQDEGSLRLSCAASGLIFSNYIVGWFRQTPGKEREFVAAIRWGGTSSYYSDSVKGRFTVSRDNAKNTLYLQMNNLKPEDTAVYYCATGPYYRGDYRVPDNMDYWGKGTQVTVSS
notes: also called R3-12; group G13; source: E. coli WK6 periplasm, purified (IMAC Ni-NTA, dialysis)
Kd [1]: 1.11 nM | koff [1]: 0.0031 s⁻¹ | kon [1]: 2.79e+06 M⁻¹ s⁻¹

B7: Nb3.60 (VHH)
VHH: QVQLVESGGGLVQPGGSLRLSCVASGTIFSMYGVYWYRQAPGNQREVVAWISSSGNTNYVNAVKGRFTISRDNAKNTTWLQMHSLKPEDAAVYYCRLGMNYWGKGTQVTVSS
notes: The preparation held dimers beside monomers (SDS-PAGE); also called R2-60; group G3; source: E. coli WK6 periplasm, purified (IMAC Ni-NTA, dialysis)
stoichiometry N [5]: 2 | Kd [1]: 0.618 nM | koff [1]: 0.00475 s⁻¹ | kon [1]: 7.69e+06 M⁻¹ s⁻¹

B8: Nb2.22 (VHH)
VHH: QVQLVESGGGLVQAGGSLRLSCAASGATFITYGMTWFRQAPGKEREFVAAVTGNGAGTTYLPSVKGRFTISRDNAKNTVYLQMSSLKPEDTAVYYCGGRRWVPATAVDQVAYWGQGTQVTVSS
notes: Labelled with 99mTc through its His tag for the biodistribution test only; also called R3-22; group G2; source: E. coli WK6 periplasm, purified (IMAC Ni-NTA, dialysis; size exclusion chromatography for the later tests); not shown: His6, C-terminal, kept
Kd [1]: 0.269 nM | koff [1]: 0.00221 s⁻¹ | kon [1]: 8.24e+06 M⁻¹ s⁻¹

B9: Nb11.16 (VHH)
VHH: QVQLVESGGGLVQAGGSLRLSCVASGGTFSNYRMAWFRQAPGKEREFVSLITRSGGSTYYADSVKGRFTISRDNAKNTVSLQMNTLKPEDTAVYTCAATPRFDSYSNYIRTNGYDYWGQGTQVTVSS
notes: also called R3-16; group G11; source: E. coli WK6 periplasm, purified (IMAC Ni-NTA, dialysis)
Kd [1]: 0.169 nM | koff [1]: 0.00392 s⁻¹ | kon [1]: 2.32e+07 M⁻¹ s⁻¹

B10: Nb11.28 (VHH)
VHH: QVQLVESGGGLVQAGASLRLSCAASGGTFSNYRMAWFRQAPGKEREFVSLITRSGGSTYYADSVKGRFTISRDNAQNTVSLQMNTLKPEDTAVYTCAATPRFDSGSYYTRTNGYDYWGQGTQVTVSS
notes: also called R3-28; group G11; source: E. coli WK6 periplasm, purified (IMAC Ni-NTA, dialysis)
Kd [1]: 1.2 nM | koff [1]: 0.00654 s⁻¹ | kon [1]: 5.43e+06 M⁻¹ s⁻¹

B11: Nb 7.24 (VHH)
VHH: QVQLVESGGGLVQPGGSLRLSCAASGFTLDYYAIGWFRQAPGKEREGVSCIASDGGSTKYADSVKGRFTISRDSAKNTVYLQMNSLKPEDTAIYYCAAGRPGYCSGYALKEIYPYRDWGQGTQVTVSS
binding result [6]: binds

B12: Nb 10.63 (VHH)
VHH: QVQLVESGGGLVQAGGSLRLSCAASGRTFSDYNMGWFRQAPGKEREFVATISRSGAGTYYTDSVKGRFTISRDNAKNTVYLQMNNLKPEDSAAYYCAATLRVALSTITVGGYDYWGQGTQVTVSS
binding result [6]: binds

B13: Nb10.17 (VHH)
VHH: QVQLVESGGGLVQAGGSLRLSCAASGRTFDSYNMGWFRQAPGKEREFVATISRSGAGTYYTDSVKGRFTISRDNAKNTMYLQMNNLKPEDSAAYYCAATLRVALSTITVGGYDIWGQGTQVTVSS
notes: also called R3-17; group G10; source: E. coli WK6 periplasm, purified (IMAC Ni-NTA, dialysis)
Kd [1]: 0.174 nM | koff [1]: 0.00158 s⁻¹ | kon [1]: 9.08e+06 M⁻¹ s⁻¹

B14: Nb10.66 (VHH)
VHH: DVQLVESGGGLVQAGGSLRLSCAASGRTFSDYNMGWFRQAPGKEREFVATISRSGGGTYYSDSVKGRFTISRDNAKNTVYLQMNNLKPEDSAAYYCAATLRVALSTITVGGYNYWGQGTQVTVSS
notes: also called R2-66; group G10; source: E. coli WK6 periplasm, purified (IMAC Ni-NTA, dialysis)
Kd [1]: 0.314 nM | koff [1]: 0.00135 s⁻¹ | kon [1]: 4.28e+06 M⁻¹ s⁻¹

B15: Nb10.16 (VHH)
VHH: DVQLVESGGGLVEPGGSLRLSCAASGRTFSDYNMGWFRQAPGKEREFVATISRNGAGSYYTDSVKGRFTISRDNAKNTVYLQMNNLKPEDSAAYYCAATLRVALSTITVGGYDYWGQGTQVTVSS
notes: Labelled with 99mTc through its His tag for the biodistribution test only; also called R2-16; group G10; source: E. coli WK6 periplasm, purified (IMAC Ni-NTA, dialysis; size exclusion chromatography for the later tests); not shown: His6, C-terminal, kept
Kd [1]: 0.524 nM | koff [1]: 0.000825 s⁻¹ | kon [1]: 1.58e+06 M⁻¹ s⁻¹

B16: Nb10.21 (VHH)
VHH: QVQLVESGGGLVQAGGSLRLSCAASGRTFSSYNMGWFRQAPGKEREFVATISRNGAGTYYTDSVKGRFTISRDNAKNTVYLQMNNLKPEDSAAYYCAATQRVALSTITVGGYEYWGQGTQVTVSS
notes: also called R2-21; group G10; source: E. coli WK6 periplasm, purified (IMAC Ni-NTA, dialysis)
Kd [1]: 0.484 nM | koff [1]: 0.00223 s⁻¹ | kon [1]: 4.62e+06 M⁻¹ s⁻¹

B17: Nb6.19 (VHH)
VHH: DVQLVESGGGLVQPGGSLRLSCAASGFTLSTYAMRWVRQAPGKGLEWVSDINSGGDVMSYRDSVKGRFTISRDDAKNTLYLQMNSLKPEDTAVYYCTNGWSRGQGTQVTVSS
notes: also called R2-19; group G6; source: E. coli WK6 periplasm, purified (IMAC Ni-NTA, dialysis)
Kd [1]: 0.47 nM | koff [1]: 0.000612 s⁻¹ | kon [1]: 1.3e+06 M⁻¹ s⁻¹

B18: Nb6.3 (VHH)
VHH: QVQLVESGGGLVQPGGSLRLSCAASGFTFSSYAMRWVRQAPGKGLEWVSDINKGGSGTSYRDSVKGRFTISRDDAKNTLYLQMNSLKPEDTAVYYCTNGGSRGQGTQVTVSS
notes: also called R3-3; group G6; source: E. coli WK6 periplasm, purified (IMAC Ni-NTA, dialysis)
Kd [1]: 0.296 nM | koff [1]: 0.000848 s⁻¹ | kon [1]: 2.87e+06 M⁻¹ s⁻¹

B19: Nb6.39 (VHH)
VHH: QVQLVESGGGLVQPGGSLRLSCAASGFTFSTYAMRWVRQAPGKGLEWVSDINQGGGVTSYRDSVLGRFTISRDDAKNTLYLQMNSLKREDTAVYYCTNGRSRGQGTQVTVSS
notes: also called R3-39; group G6; source: E. coli WK6 periplasm, purified (IMAC Ni-NTA, dialysis)
binding result [7]: binds

B20: Nb9.15 (VHH)
VHH: QVQLVESGGGLVQPGGSLRLSCAASGFSLASRTIAWFRQAPGKEREGVSCISRSGAFTNNADSVKGRFTISRDNAKNTVYLQMNSLKPEDTADYYCAVTSSWYSTCLRESIYDSWGQGTQVTVSS
notes: also called R3-15; group G9; source: E. coli WK6 periplasm, purified (IMAC Ni-NTA, dialysis)
Kd [1]: 26.7 nM | koff [1]: 0.0317 s⁻¹ | kon [1]: 1.19e+06 M⁻¹ s⁻¹

B21: Nb 4.39 (VHH)
VHH: DVQLVESGGGLVQPGGSLRLSCAASGSNVDIATISWYRQGTGNQREFVAYITPRGNTLYGASVTGRFTISRDNAKNTVYLQMNSLRFDDTAVYYCNVARLGRNYWGQGTQVTVSS
binding result [6]: binds

B22: Nb6.4 (VHH)
VHH: QVQLVESGGGLVQPGGSLTLSCAASGFTISNYAMKWDRQAPGKGFEWVSTINSDGDNTSYRDSVKGRFTISRDNAKNTLYLQMNSLKPEDTAVYYCSNGGRRGQGTQVTVSS
notes: also called R3-4; group G6; source: E. coli WK6 periplasm, purified (IMAC Ni-NTA, dialysis)
Kd [1]: 2 nM | koff [1]: 0.00231 s⁻¹ | kon [1]: 1.16e+06 M⁻¹ s⁻¹

B23: Nb12.75 (VHH)
VHH: QVQLVESGGGLVQAGGSLRLSCAASLRTFSNAMGWFRQAPGKEREFVAVITWSGRVTNYSDSVKGRFTISKDNAKNTMYLQMNSLKLEDTAVYFCARESTFATANPKDYAYWGQGTQVTVSS
notes: also called R2-75; group G12; source: E. coli WK6 periplasm, purified (IMAC Ni-NTA, dialysis)
binding result [2]: binds

B24: Nb6.18 (VHH)
VHH: DVQLGESGGGLVQPGGSLRLSCAASGFTFSSYAMRWVRQAPGKALEWVADINSSGAYTNYRDSVTGRFIISRDNVKNTLYLQMDNMKPEDTAVYYCTTGGQRGQGTQVTVSS
notes: also called R3-18; group G6; source: E. coli WK6 periplasm, purified (IMAC Ni-NTA, dialysis)
Kd [1]: 0.51 nM | koff [1]: 0.000756 s⁻¹ | kon [1]: 1.48e+06 M⁻¹ s⁻¹
